# From the supplement of paper PMC10567573
# B1: ZNF649 (parent)
# chain: YHTGKTPFVCPECGQPCSQKSGLI
# Variants of: B1
# Assay: protein stability index of a GFP-peptide fusion (GPS, HEK-293T) (PSI 1-6); higher = more stable
# Details: c terminus: a fixed tail appended
# 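Note: lentivirally expressed fusions sorted by FACS into six bins by GFP to DsRed ratio, PSI derived from sequencing read proportions per bin multiplied by bin number.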
row,Variant,protein stability index
1,YHTGKTPFVCPECGQPCSQKSGHI,2.05
2,YHTGKTPFVCPECGQPCSQKSGLT,2.01
3,YHTGKTPFVCPECGQPCSQKCGLI,2.32
4,YHTGKTPFVCPECGQPCSQKSQLI,2.2
5,AHTGKTPFVCPECGQPCSQKSGLI,3.92
6,YETGKTPFVCPECGQPCSQKSGLI,3.55
7,YHTGKTPFVCPECGQPCSQKSGII,2.03
8,YHTGKTPFVCPECGQPCDQKSGLI,2.25
9,YHTGKTPFGCPECGQPCSQKSGLI,1.79
10,YHTGKTPFVCPECGQPCSQKMGLI,2.26
11,YHTGKTPFVCPECGQPCSQKRGLI,1.92
12,YHTGKTIFVCPECGQPCSQKSGLI,1.76
13,MHTGKTPFVCPECGQPCSQKSGLI,1.65
14,YHTGKTPFVCPECGQPCNQKSGLI,1.22
15,YHTGKTPFVCPECGNPCSQKSGLI,3.41
16,YHTGKTPFVCPECGQPCSKKSGLI,1.29
17,YHTGKTPFVCPECGQPCSPKSGLI,2.04
18,YHTGKTPFVCPECVQPCSQKSGLI,2.06
19,YHTGKTPFVCPECGQQCSQKSGLI,2.37
20,YHTGKTPFVCPECGQPCSQLSGLI,1.37
21,CHTGKTPFVCPECGQPCSQKSGLI,3.52
22,YHTGKTPMVCPECGQPCSQKSGLI,1.62
23,YHTGKTPFVCPECGQPCYQKSGLI,2.4
24,YHTGKTPFVCPECGQPCSQKSGLY,1.59

row,Variant,protein stability index
1,YHTGKTPFVCPECGQPCSQDSGLI,1.72
2,YHTGKIPFVCPECGQPCSQKSGLI,2.22
3,YHTGKTPFFCPECGQPCSQKSGLI,3.17
4,YHTGKTPFVCPGCGQPCSQKSGLI,3.37
5,YHTGKTPFVCPECGHPCSQKSGLI,2.23
6,YHTGKTPFVCPECGQPFSQKSGLI,1.59
7,HHTGKTPFVCPECGQPCSQKSGLI,3.46
8,YHTGKTPFVCPECGQPCSQKSPLI,2.91
9,YHTGKTPFVCPECGQPCSNKSGLI,1.59
10,YHTGKTPFVCPECGFPCSQKSGLI,3.01
11,YKTGKTPFVCPECGQPCSQKSGLI,2.76
12,YHTGKTPFVCPECGQPCSQKSGEI,1.03
13,YHTGKTPFVCPEKGQPCSQKSGLI,3.33
14,YHTGKTPFVCPECGQPCSQKSGMI,1.46
15,YHTGKTPFVCPECGQECSQKSGLI,2.79
16,EHTGKTPFVCPECGQPCSQKSGLI,3.71
17,YHTGKTPFVCPECGQHCSQKSGLI,2.65
18,YHTGKTPFVCPEAGQPCSQKSGLI,3.53
19,YHAGKTPFVCPECGQPCSQKSGLI,2.57
20,YHTGKTPFVCPECGWPCSQKSGLI,1.83
21,YHTGKLPFVCPECGQPCSQKSGLI,2.21
22,YHTGKTPFVCPECGQPCSQKAGLI,1.4
23,YHTGKTPFVCPECGQPNSQKSGLI,2.76
24,YHTGKTPFVCRECGQPCSQKSGLI,1.79

row,Variant,protein stability index
1,YHEGKTPFVCPECGQPCSQKSGLI,2.85
2,YHTGKTPFKCPECGQPCSQKSGLI,1.58
3,YHTGKTPFVCPECRQPCSQKSGLI,3.6
4,YHTGKTPFVCPECGQPMSQKSGLI,2.14
5,YHTGKTPFVCPECGQPCSQKGGLI,2.41
6,YHYGKTPFVCPECGQPCSQKSGLI,1.27
7,YHTGKTPFVCPECGEPCSQKSGLI,2.65
8,YHTGKTPFVCPECGQPCPQKSGLI,2.26
9,YHTGKTPFVCPECGYPCSQKSGLI,1.75
10,YHTGKTPFVCEECGQPCSQKSGLI,1.61
11,YHTGKTPFVKPECGQPCSQKSGLI,1.76
12,YHTGKTPFVCPECGQPCSMKSGLI,2.49
13,YHTGKTPFVCPECGQPCSQKSGSI,2.72
14,YHTGKTPFVCPECYQPCSQKSGLI,2.27
15,YHTGDTPFVCPECGQPCSQKSGLI,1.77
16,YHTGKTPFVCPECGQPCSRKSGLI,2.27
17,YHTGKTPFVCPECGQPVSQKSGLI,2.26
18,YHTGKTPFVCPECGQPCSQKSGDI,2.12
19,YHTGKHPFVCPECGQPCSQKSGLI,2.91
20,YHTGKTPFVCPECGQPASQKSGLI,3.38
21,YQTGKTPFVCPECGQPCSQKSGLI,2.28
22,SHTGKTPFVCPECGQPCSQKSGLI,3.72
23,YHTGKTPFVCPECEQPCSQKSGLI,1.95
24,YHTGKTPFVCPECGQACSQKSGLI,2.79

row,Variant,protein stability index
1,YHTGKTPFVCPECGQPCSQKSGLS,1.45
2,YHTGKTPFVYPECGQPCSQKSGLI,2.29
3,YHTGKTPFVCPECQQPCSQKSGLI,2.31
4,YHTGKTPFVCPEMGQPCSQKSGLI,2.98
5,YHTGKGPFVCPECGQPCSQKSGLI,1.71
6,YHTGKTPRVCPECGQPCSQKSGLI,2.09
7,YHTGKTPFVCPECGQPCLQKSGLI,1.85
8,YHTGKTPFECPECGQPCSQKSGLI,1.61
9,YHTGKTPFVQPECGQPCSQKSGLI,1.27
10,YHTGKTPFVCPECGQYCSQKSGLI,1.04
11,YHTGKTPFVCPECGQPCSQKNGLI,1.93
12,YHTGKTCFVCPECGQPCSQKSGLI,2.26
13,YHTGKTPVVCPECGQPCSQKSGLI,1.78
14,YHTGKTPSVCPECGQPCSQKSGLI,2.15
15,YHTGRTPFVCPECGQPCSQKSGLI,2
16,YHTGKTPFVCPECGQMCSQKSGLI,1.86
17,QHTGKTPFVCPECGQPCSQKSGLI,2.47
18,YHTGKTPFVCKECGQPCSQKSGLI,2.46
19,YHTGKTHFVCPECGQPCSQKSGLI,3.19
20,WHTGKTPFVCPECGQPCSQKSGLI,2.48
21,YHTGKTPFVCPRCGQPCSQKSGLI,2.32
22,YHTKKTPFVCPECGQPCSQKSGLI,2.18
